# Data taken from US20230257435A1, “Wound Healing Composition and Uses Thereof” (AGENCY FOR SCIENCE, TECHNOLOGY AND RESEARCH, priority 2020, published 2023).
# B1: sAgrin: C-terminus recombinant Agrin fragment containing 8 amino acid 'Z8' insert and LG3 domain (SEQ ID NO: 7), His-tagged, expressed in E. coli (protein)
# chain: DTLAFDGRTFVEYLNAVTESELANEIPVEKALQSNHFELSLRTEATQGLVLWSGKATERADYVALAIVDGHLQLSYNLGSQPVVLRSTVPVNTNRWLRVVAHREQREGSLQVGNEAPVTGSSPLGATQLDTDGALWLGGLPELPVGPALPKAYGTGFVGCLRDVVVGRHPLHLLEDAVTKPELRPCPTP
# modifications: His tag
# Tests used:
# keratinocytes = experiment: BrdU incorporation after wound scratch (leader/follower cells); type: cell-based; conditions: Agrin knockdown; 10 μg/ml sAgrin 18 h; 4 h post-scratch
# Method: FIG. 6 Agrin impacts keratinocyte proliferation following wound injury. (a) Control, Agrin depleted indicated keratinocytes and those rescued with 10 μg/ml sAgrin for 18 h were labelled with 20 μM BrdU for 12 hours, before proceeding with wound-scratch assays. The cells were fixed at 4 hours post-scratching and stained with an Anti-BrdU and K17 antibodies. Nuclei were counterstained with DAPI. Representative confocal images at the wound edge (leader) and at-least 200 μm away from the wound margin (followers) are shown. The relative percentage of proliferating cells are shown for each condition graphically (n=5-6 images analyzed for each conditions from three replicates, Students ‘t’ test, **p=0.006, *p-0.003, p=0.005, ***p=0.0001, respectively). Scale bar: 10 μm. (b-c) Schematic showing the states of proliferation at the migrating wound margins. Immunohistological sections stained for Ki67 in control and Agrin depleted wound edges and beds at day 7 post-wounding. Filled arrows denote the base of epidermis (Ep), while arrows represent the wound margin. Asterisk (*) denotes the loss of Ki67 proliferation at the wound margins. Scale bar: 100 μm. The percentage of proliferating cells was quantified using Image J (n=4 sections analyzed from two individual mice, Students ‘t’ tests, **p=0.001).
# MMP12 = MMP12 levels in HaCaT cells (Western blot / immunostaining); type: cell-based, human
# Method: Tissue culture plates were coated with Col-T-gel (Fischer Scientific) of stiffness ranging from 0.8 KPa (soft) to 30 KPa (stiff) as per manufacturer recommendations and allowed to solidify for 40 min at 37° C. inside tissue culture incubators. Some experiments were performed with cells seeded on the poly-hydrogel plates of defined stiffness: 0.2 kPa and 16 kPa soft and hard polyhydrogels, respectively (CytoSoft, Advanced Biomatrix, Inc.,). The determination of stiffness of silicone substrates were done by the manufacturer as per previously published protocols. For certain experiments, indicated amounts of sAgrin was incorporated into the 0.8 KPa collagen gels before gelation process. Upon gelation, trypsinized cells or excised mouse skin explants were plated onto the gels of different stiffness either alone or containing sAgrin. The cells/tissues were incubated under standard culture condition with 500 μl recommended culture medium for the indicated days. The crossbow shaped micropatterns with fibronectin coated islands were generated by microlithography on a 19.5×19.5 mm coverslide from Cytoo, Inc., France. The micropatterns had surface areas of 800μ^2 or 1600μ^2, respectively. Fifty thousand cells after initial siRNA treatment was placed on the micropatterns for 4-6 h before processing them for immunofluorescence. For some experiments, 10 μg/ml sAgrin was added on the slides 18 h prior to the addition of cells.
# Indicated cells post-manipulation were washed twice with cold Phosphate buffered saline (PBS) and lysed with cold 1% NP-40 lysis buffer supplemented with 1× protease inhibitor cocktail (Roche Applied Biosciences) for 15 mins at 4° C. The cell lysate was centrifuged at 13,000 rpm for 15 min. This was followed by protein estimation using Bradford reagent. Subsequently, […] of total protein was mixed with an equal volume of 2× Laemmli sample buffer and heated at 95° C. for 5 mins. This was followed by resolution with SDS-PAGE gel. The resolved proteins were transferred onto nitrocellulose membrane and blocked in 5% skimmed milk reconstituted in 1×PBS containing 0.1% Tween-20, and probed overnight with the respective primary antibody. The membrane was then washed with 1×PBS supplemented with 0.1% Tween-20: three times at 15 min intervals. This was followed by 1 h incubation in conjugated horseradish peroxidase HRP secondary antibody (Santa Cruz Biotechnology). […] The density of the various bands was quantified using the Image-J software.
# Cells were cultured on eight-well chamber slides or coverslips over-night. […] The images were processed and analyzed by Zen blue software. […]
molecule,measurement,setting,value
B1,proliferation of follower cells away from the wound margin,keratinocytes,rescued
same,"MMP12 levels on soft matrix, exposure time series",MMP12; 10 μg/ml sAgrin,increased MMP12 levels
same,"MMP12 protein levels on soft substrates, concentration series","MMP12; 0.8 kPa, increasing sAgrin, 18 h",strongly stabilized MMP12 protein levels in a dose-dependent fashion
same,MMP12 and Agrin at the leading migrating front,"MMP12; 6 h post-wound scratch, sAgrin 10 μg/ml",further heightened
same,MMP12 levels in Agrin knockdown cells on stiff ECM,"MMP12; increasing sAgrin, 18 h, dose-dependent",restored their MMP12 levels
